The source of these data is the Human Domainome abundance scans (Beltran et al. 2025).

B1: Chromodomain-helicase-DNA-binding protein 4, residues 444 to 496; numbered along this chain, Q14839 (parent)
chain: EDDHHMEFCRVCKDGGELLCCDTCPSSYHIHCLNPPLPEIPNGEWLCPRCTCP

± gives the uncertainty stated by the source.

In the data set the parent is B1. Nature of the data set: abundance fitness (aPCA) (normalised: wild type 0, dead -1); higher = more abundant; growth selection in yeast, the domain comes from the species named. As to conditions: Homo sapiens.
Take L37F: the abundance fitness was -0.271 ± 0.056.
Regarding L37W, the abundance fitness was -0.248 ± 0.063.
For L37P the value was 0.018 ± 0.044; for L37E, -0.249 ± 0.094.
The result for L37Q reads -0.135 ± 0.054; that for L37V, -0.066 ± 0.053; that for L37S, -0.194 ± 0.042.
Turning to L37Y, the abundance fitness is -0.274 ± 0.057.
On to L37I, for which the abundance fitness was -0.049 ± 0.066.
The result for L37T reads -0.23 ± 0.055; that for L37C, -0.194 ± 0.053; that for L37R, -0.233 ± 0.051.
On to L37M, for which the abundance fitness was -0.115 ± 0.05.
For I40D the value was -0.152 ± 0.11; for I40N, -0.066 ± 0.057.
As to I40P, the abundance fitness was found to be 0.112 ± 0.052.
The result for I40V reads 0.055 ± 0.043; that for I40A, 0.07 ± 0.06; that for I40H, 0.017 ± 0.052.
The result for I40R reads 0.151 ± 0.052; that for I40G, -0.007 ± 0.059; that for I40Y, 0.016 ± 0.059.
For I40S the value was -0.023 ± 0.044; for I40E, 0.056 ± 0.092.
With I40T, the abundance fitness is -0.005 ± 0.05.
The result for I40L reads 0.01 ± 0.041; that for I40C, 0.019 ± 0.048.
The result for I40F reads -0.057 ± 0.07; that for I40K, 0.11 ± 0.065; that for I40W, -0.041 ± 0.071.
The result for I40Q reads 0.01 ± 0.067.
In the case of I40M, the abundance fitness is -0.106 ± 0.067.
For L33T the value was -0.361 ± 0.05; for L33S, -0.54 ± 0.044.
With L33R, the abundance fitness is -0.787 ± 0.073.
For L33E the value was -0.685 ± 0.2; for L33F, -0.373 ± 0.048; for L33N, -0.732 ± 0.061.
Regarding L33A, the abundance fitness was -0.429 ± 0.057.
The result for L33C reads -0.421 ± 0.051; that for L33K, -0.61 ± 0.055; that for L33H, -0.626 ± 0.053.
For L33Q the value was -0.602 ± 0.063; for L33I, -0.085 ± 0.042; for L33P, -0.703 ± 0.052.
For L33G the value was -0.598 ± 0.087; for L33D, -0.561 ± 0.092.
As for L33W, the abundance fitness is -0.954 ± 0.14.
For L33M the value was -0.326 ± 0.067.
The result for T51D reads 0.152 ± 0.083.
For T51G the value was -0.136 ± 0.042; for T51L, -0.003 ± 0.046; for T51H, -0.169 ± 0.08.
As for T51M, the abundance fitness was -0.097 ± 0.056.
For T51K the value was -0.051 ± 0.082.
For T51R the value was -0.073 ± 0.053; for T51S, 0.013 ± 0.056.
The result for T51Y reads -0.171 ± 0.072.
T51P: the abundance fitness was found to be 0.031 ± 0.046.
The result for T51N reads 0.12 ± 0.072.
On to T51V, for which the abundance fitness was -0.048 ± 0.05.
For T51Q the value was -0.03 ± 0.061; for T51F, 0.048 ± 0.077; for T51C, -0.151 ± 0.076.
As for T51W, the abundance fitness is -0.12 ± 0.06.
The result for T51E reads 0.074 ± 0.074; that for L46Q, -0.019 ± 0.053; that for L46K, 0.079 ± 0.061.
For L46D the value was -0.252 ± 0.084; for L46I, -0.012 ± 0.063; for L46Y, -0.061 ± 0.07.
For L46N the value was 0.211 ± 0.066.
Take L46P: the abundance fitness was -0.426 ± 0.044.
The result for L46T reads -0.02 ± 0.047; that for L46V, 0.106 ± 0.061.
For L46A the value was -0.033 ± 0.04; for L46E, -0.092 ± 0.054.
For L46R the value was 0.008 ± 0.046; for L46W, -0.266 ± 0.064; for P36G, -0.244 ± 0.064.
Take P36A: the abundance fitness was -0.035 ± 0.048.
The result for P36C reads -0.546 ± 0.088; that for P36M, -0.274 ± 0.052; that for P36S, -0.1 ± 0.047.
The result for P36V reads -0.22 ± 0.068.
The result for P36Y reads -0.539 ± 0.06.
For P36N, the abundance fitness is -0.294 ± 0.074.
For P36E the value was -0.33 ± 0.1.
The result for P36F reads -0.604 ± 0.068; that for P36I, -0.195 ± 0.054; that for P36D, -0.323 ± 0.1.
As to P36K, the abundance fitness worked out at 0.102 ± 0.073.
For P36T the value was -0.18 ± 0.049; for P36Q, -0.026 ± 0.062.
The result for P36W reads -0.546 ± 0.086; that for P36R, -0.095 ± 0.046; that for P36L, -0.458 ± 0.045.
For the variant P38R, the abundance fitness was -0.046 ± 0.049.
The result for P38T reads -0.003 ± 0.05; that for P38V, -0.113 ± 0.058; that for P38A, -0.014 ± 0.06.
For P38L the value was -0.115 ± 0.046; for P38N, 0.065 ± 0.066; for P38H, -0.008 ± 0.061.
For P38Q the value was 0.085 ± 0.062; for P38G, -0.196 ± 0.078.
P38M: the abundance fitness is -0.082 ± 0.043.
The result for P38F reads -0.153 ± 0.054; that for P38S, -0.075 ± 0.045.
Take P38K: the abundance fitness was 0.088 ± 0.068.
With P38D, the abundance fitness is -0.031 ± 0.064.
For P38W the value was -0.172 ± 0.08; for P38E, -0.096 ± 0.099.
For the variant P38I, the abundance fitness was -0.059 ± 0.051.
The result for W45F reads -0.085 ± 0.084; that for W45K, -0.549 ± 0.066; that for W45D, -0.473 ± 0.072.
Regarding W45C, the abundance fitness is -0.616 ± 0.05.
The result for W45A reads -0.517 ± 0.057.
For W45R the value was -0.446 ± 0.044; for W45E, -0.517 ± 0.055; for W45P, -0.503 ± 0.046.
As for W45Y, the abundance fitness is -0.357 ± 0.053.
The result for W45N reads -0.428 ± 0.079; that for W45G, -0.487 ± 0.05; that for W45S, -0.443 ± 0.048.
For W45I, the abundance fitness was -0.533 ± 0.082.
Consider W45Q, for which the abundance fitness was -0.509 ± 0.065.
Turning to W45H, the abundance fitness is -0.489 ± 0.065.
W45T: the abundance fitness is -0.43 ± 0.047.
The result for W45V reads -0.431 ± 0.054; that for W45M, -0.398 ± 0.063; that for W45L, -0.591 ± 0.053.
For P35F the value was -0.45 ± 0.05.
For P35N the value was -0.302 ± 0.064; for P35T, -0.198 ± 0.051.
Consider P35D, for which the abundance fitness is -0.262 ± 0.093.
For P35I the value was -0.432 ± 0.078; for P35K, -0.199 ± 0.072.
The result for P35G reads -0.289 ± 0.067; that for P35V, -0.399 ± 0.059; that for P35W, -0.593 ± 0.047.
Turning to P35Y, the abundance fitness is -0.301 ± 0.052.
P35H: the abundance fitness is -0.386 ± 0.071.
In the case of P35L, the abundance fitness was -0.378 ± 0.046.
As to P35S, the abundance fitness was -0.261 ± 0.042.
For P35Q the value was -0.226 ± 0.064; for P35A, -0.296 ± 0.057; for P35E, -0.076 ± 0.088.
The result for P41G reads -0.133 ± 0.065.
For P41K the value was -0.118 ± 0.067.
On to P41E, for which the abundance fitness is -0.2 ± 0.06.
For P41C the value was -0.135 ± 0.092; for P41Y, -0.463 ± 0.093.
The result for P41M reads -0.187 ± 0.05; that for P41L, -0.228 ± 0.056.
For P41D the value was -0.282 ± 0.097; for P41T, -0.114 ± 0.046.
In the case of P41V, the abundance fitness was -0.154 ± 0.046.
In the case of P41S, the abundance fitness is -0.226 ± 0.059.
For P41Q the value was -0.18 ± 0.062; for P41A, -0.146 ± 0.059; for P41F, -0.06 ± 0.1.
The result for P41N reads 0.029 ± 0.081.
The result for P41I reads -0.106 ± 0.062; that for P41H, -0.142 ± 0.053; that for P41R, -0.144 ± 0.053.
